Results reported in patent US20160083481A1 (INSERM INSTITUT NATIONAL DE LA SANT ET DE LA RECHERCHE M …, published 2016).

Key:
[1] = target: T1, Purified glycophorin A (human, from red cell membranes) (human, UniProt P02724 20-150); assay: SPR, Biacore X100, purified GPA amine-coupled on a CM5 chip (400 RU), IH4 as analyte, 1:1 Langmuir fit
T1 construct: mature; also called GPA; Human Glycophorin A
T1 sequence (looked up): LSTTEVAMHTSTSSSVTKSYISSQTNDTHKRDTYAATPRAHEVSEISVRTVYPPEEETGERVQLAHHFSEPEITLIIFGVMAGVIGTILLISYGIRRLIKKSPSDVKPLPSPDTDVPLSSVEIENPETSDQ
Description: SPR recordings obtained in a Biacore X100 apparatus.
SPR analysis of VHH interactions used a Biacore X100 apparatus (GE Healthcare). Purified GPA was immobilized on a CM5 chip in the Fc2 channel to a level of 400 Resonance units using amine coupling chemistry as recommended by the manufacturer. Reference channel Fc1 was simply activated and deactivated through ethanolamine. 6 different concentrations of analyte were injected onto the chip for 180 seconds, and dissociation let to proceed for 600 seconds. Data were analyzed using BIA Evaluation software associated to the apparatus.
Data can be easily fitted using 1:1 Langmuir fit.

[2] = target: T2, Glycophorin B in the crude glycophorins mixture (human, UniProt P06028 20-91); assay: western blot of the crude glycophorins mixture, PVDF, with and without NaOH beta-elimination
T2 construct: mature; also called GPB

B1: IH4 (VHH)
VHH: QVQLQESGGGSVQAGGSLRLSCVASGYTDSTYCVGWFRQAPGKEREGVARINTISGRPWYADSVKGRFTISQDNSKNTVFLQMNSLKPEDTAIYYCTLTTANSRGFCSGGYNYKGQGQVTVS
notes: also called VHH IH4; autonomous IH4; not shown: A polyhistidine tail is also present: C-terminal after the HA tag (pHEN6cPm)
In the case of B1, the Kd [1] is reported as 33.7 nM, the koff [1] is reported as 0.019 s⁻¹ and the kon [1] is reported as 573000 M⁻¹ s⁻¹. B1: no binding [2].
